# B1: antibody 6B4.1 (antibody, V domains shown)
# VH: QVQLVESGGGVVQPGRSLRLSCAASGFTFSSYGMHWVRQAPGKGLEWVAVIWYDGSKKYYADSVKGRFTISRDNSKNTLYLQMNRLRAEDTAVYYCARDGGIAVFLQDNWFDPWGQGTLVTVSS
# VL: SYELTQPPSVSVSPGQRARITCSGDKLGDKYASWYQQKPGQSPLLVIYQDSKRPSGIPERFSGSNSGNTATLTISGTQAMDEADYYCQAWGSSTVIFGGGTKLTVLG
# notes: Human antibody from XenoMouse hybridoma; Light = 2 and heavy = 42 is inferred from the order of the listing (light chains first)
# B2: antibody 6B5.1 (antibody, human IgG2, lambda, V domains shown)
# VH: QVQLVESGGGVVQPGRSLRLSCAASGFTFRSYGMHWVRQAPGKGLEWVAVIWYDGSKKYYADSVKGRFTISRDNSKNTLYLQMNRLRAEDTAVYYCARDGGIAVFLEDNWFDPWGQGTLVTVSS
# VL: SYELTQPPSVSVSPGQRASITCSGDKLGDKYASWYQQKPGQSPLLVIYQDGKRPSGIPERFSGSNSGNTATLTISGTQAMDEADYYCQAWGSSTVIFGGGTKLTVLG
# notes: Human antibody from XenoMouse hybridoma; Light = 18 and heavy = 50 is inferred from the order of the listing
# Tests used:
# [1] = target: T1, human CCR7 variant V123I (20100126473) (human, UniProt P32248 25-378); assay: flow cytometry on transfected 293T cells, PE secondary antibody, geo mean
# T1 sequence: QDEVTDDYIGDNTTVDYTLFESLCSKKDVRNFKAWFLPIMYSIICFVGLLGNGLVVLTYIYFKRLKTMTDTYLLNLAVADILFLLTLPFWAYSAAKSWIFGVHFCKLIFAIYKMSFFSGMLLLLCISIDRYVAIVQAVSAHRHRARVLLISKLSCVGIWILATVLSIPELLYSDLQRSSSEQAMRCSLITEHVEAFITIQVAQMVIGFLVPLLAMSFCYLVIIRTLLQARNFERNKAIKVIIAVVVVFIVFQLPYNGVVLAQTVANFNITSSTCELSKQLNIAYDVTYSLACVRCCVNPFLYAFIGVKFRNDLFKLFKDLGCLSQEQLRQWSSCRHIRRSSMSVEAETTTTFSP
# [2] = target: T2, murine CCR7 Y44F/V47L/K201R/N202S/G204S/T207A/L208M construct 20110105423 (mouse, UniProt P47774 25-378); assay: as above
# T2 construct: Murine CCR7 with seven human residues; also called YVKNGTL; construct YVKNGTL
# T2 chain: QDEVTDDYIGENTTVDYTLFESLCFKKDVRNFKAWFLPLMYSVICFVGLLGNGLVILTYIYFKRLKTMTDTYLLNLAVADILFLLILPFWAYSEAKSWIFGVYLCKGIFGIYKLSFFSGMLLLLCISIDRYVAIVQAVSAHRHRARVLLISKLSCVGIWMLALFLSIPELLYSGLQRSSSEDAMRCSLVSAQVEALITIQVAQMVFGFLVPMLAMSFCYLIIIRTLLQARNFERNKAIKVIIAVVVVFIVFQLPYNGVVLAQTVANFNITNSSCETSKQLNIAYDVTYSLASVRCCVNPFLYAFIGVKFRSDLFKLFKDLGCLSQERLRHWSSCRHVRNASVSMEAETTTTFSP
# [3] = target: T3, human CCR7 variant A118E (20100130760) (human, UniProt P32248 25-378); assay: as above
# T3 sequence: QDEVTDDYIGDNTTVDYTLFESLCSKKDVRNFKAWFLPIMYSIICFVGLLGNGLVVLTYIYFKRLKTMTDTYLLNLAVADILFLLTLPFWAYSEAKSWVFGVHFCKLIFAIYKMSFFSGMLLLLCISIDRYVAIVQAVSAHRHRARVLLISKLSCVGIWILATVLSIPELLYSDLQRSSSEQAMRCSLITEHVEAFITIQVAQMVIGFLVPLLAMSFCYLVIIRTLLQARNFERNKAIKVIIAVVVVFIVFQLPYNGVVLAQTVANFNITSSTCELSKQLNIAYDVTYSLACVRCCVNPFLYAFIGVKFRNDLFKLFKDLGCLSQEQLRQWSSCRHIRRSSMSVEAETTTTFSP
# [4] = target: T4, human CCR7 variant S49F (20100122627) (human, UniProt P32248 25-378); assay: as above
# T4 sequence: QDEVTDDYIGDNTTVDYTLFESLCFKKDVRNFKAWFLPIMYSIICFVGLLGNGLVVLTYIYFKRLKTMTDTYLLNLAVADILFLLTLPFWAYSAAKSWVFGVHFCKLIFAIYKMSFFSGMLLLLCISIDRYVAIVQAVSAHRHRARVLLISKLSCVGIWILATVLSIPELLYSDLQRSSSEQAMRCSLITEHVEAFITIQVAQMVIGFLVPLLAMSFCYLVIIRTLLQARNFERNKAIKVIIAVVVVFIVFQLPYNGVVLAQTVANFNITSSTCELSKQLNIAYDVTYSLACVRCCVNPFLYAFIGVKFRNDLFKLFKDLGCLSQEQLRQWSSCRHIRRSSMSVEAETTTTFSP
# [5] = target: T5, human CCR7 variant F44Y (20100128285) (human, UniProt P32248 25-378); assay: as above
# T5 sequence: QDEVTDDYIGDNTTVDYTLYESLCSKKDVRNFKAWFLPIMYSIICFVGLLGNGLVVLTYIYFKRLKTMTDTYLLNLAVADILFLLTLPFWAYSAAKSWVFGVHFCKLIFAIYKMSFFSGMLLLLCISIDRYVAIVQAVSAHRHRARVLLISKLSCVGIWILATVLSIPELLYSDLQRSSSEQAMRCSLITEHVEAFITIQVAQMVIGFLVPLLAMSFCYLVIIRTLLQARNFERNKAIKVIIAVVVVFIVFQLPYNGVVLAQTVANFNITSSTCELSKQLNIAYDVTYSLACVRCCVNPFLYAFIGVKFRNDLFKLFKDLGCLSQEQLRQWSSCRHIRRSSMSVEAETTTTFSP
# [6] = target: T6, wild-type murine CCR7 (pcDNA3.1 Neo-mouseCCR7, 20060298628) (mouse, UniProt P47774 25-378); assay: flow cytometry on transfected 293T cells
# T6 construct: Full open reading frame as printed; Expressed on transfected 293T cells; also called mCCR7; wild-type murine CCR7 receptor
# T6 sequence: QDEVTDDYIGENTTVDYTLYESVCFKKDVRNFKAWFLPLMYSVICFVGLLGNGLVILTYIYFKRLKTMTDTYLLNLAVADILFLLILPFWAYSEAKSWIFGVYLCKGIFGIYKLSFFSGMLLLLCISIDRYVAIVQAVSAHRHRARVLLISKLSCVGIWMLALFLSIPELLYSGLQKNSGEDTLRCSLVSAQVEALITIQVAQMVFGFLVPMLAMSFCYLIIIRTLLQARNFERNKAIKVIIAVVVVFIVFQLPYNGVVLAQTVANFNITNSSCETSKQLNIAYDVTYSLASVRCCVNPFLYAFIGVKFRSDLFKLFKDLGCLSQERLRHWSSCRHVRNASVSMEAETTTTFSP
# Procedure: 293T cells were transfected with each of the 22 constructs using Fugene HD Transfection Reagent (Cat #: 04709705001) (Roche Applied Sciences, Indianapolis, Ind.) according to manufacturer's protocol. DNA to Fugene HD ratio used was 1:3. […] After 48 hours, transfected cells were harvested and washed with PBS+5% FBS two times. Cells were counted using the Nexcelom Cell Counter (Nexcelom Bioscience, Lawrence, Mass.), and 250,000 cells per well were plated in a 96 well round bottom plate. Cells transfected with each construct were stained in duplicate as follows: unstained control, 6B4.1 primary Ab followed by Goat anti-human-PE secondary Ab, 6B5.1 primary Ab followed by Goat anti-human-PE secondary Ab, mAb197 primary Ab followed by Goat anti-mouse-PE secondary Ab, and the controls of secondary Ab Goat anti-mouse-PE only and Goat anti-human-PE only. The cells were visualized by flow cytometry and geo means were generated and analyzed.
binder,measurement,setting,value
B1,binding result,[1],binds
same,binding result,[2],binds
same,binding result,[3],binds
same,binding result,[4],binds
same,binding result,[5],binds
same,binding result,[6],no binding
B2,binding result,[1],binds
same,binding result,[2],binds
same,binding result,[3],binds
same,binding result,[4],binds
same,binding result,[5],binds
same,binding result,[6],no binding

# From patent publication US20170342155A1 (Amgen, published 2017)
